± gives the standard deviation of the averaged measurements.
test system: Saccharomyces cerevisiae; experiment: protein stability index of tFT-peptide fusion (C-terminal peptide) (PSI (0-1 scale)); higher = more stable (slower turnover); settings: genetic background: wild type; temperature: 30 C
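Further: PSI is a weighted mean of sequencing reads over stability bins, variants kept only with over 10 reads, mCherry proximal and sfGFP distal, peptide attached via GGGS linker.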

Sequence | protein stability index
PLRPRGAAPPHP | 0.6842 ± 0.0026
PLSAPNHVPGRT | 0.702 ± 0.045
PLSFPTFVPLPI | 0.663 ± 0.043
PLSFSPSLRYPP | 0.659 ± 0.023
PLSGFSSPSFFP | 0.693 ± 0.025
PLSPLPPPPPPP | 0.649 ± 0.04
PLSPPPPSPPFA | 0.743 ± 0.013
PLSPPPPSPPRP | 0.645 ± 0.025
PLSPRHVSPPLL | 0.778 ± 0.045
PLSRPFSPSLPL | 0.66 ± 0.028
PLSRYPSPSLPL | 0.693 ± 0.0076
PLVFSTSLCVSE | 0.666 ± 0.0093
PLVLPPSPASPF | 0.694 ± 0.042
PLVLSHRLPLPP | 0.703 ± 0.067
PLVPLAFWSPLV | 0.686 ± 0.035
PLVPPESPRSQV | 0.6564 ± 0.0034
PLVSLLPHPRAA | 0.495 ± 0.094
PLWALVRDVRVG | 0.652 ± 0.033
PLYLSFSFCPSF | 0.611 ± 0.013
PMHVLTKLCDGV | 0.689 ± 0.083
PMLSLFRYNVVR | 0.697 ± 0.021
PMPGRSEREYQV | 0.711 ± 0.087
PNLARPSTPTTS | 0.72 ± 0.023

Sequence | protein stability index
PNLKLSPKWAKP | 0.67 ± 0.063
PNLRPPSPPSLL | 0.714 ± 0.049
PNVPVPTPPPGI | 0.729 ± 0.061
PPAALPRSTPPP | 0.704 ± 0.063
PPAFLSPPLDPL | 0.6054 ± 0.0032
PPAPGPPHPPAL | 0.651 ± 0.013
PPAPPHPPPFPP | 0.589 ± 0.052
PPAPPLSSPPPS | 0.662 ± 0.053
PPAPPPPLPPPP | 0.64 ± 0.017
PPAPPPPPLPSY | 0.714 ± 0.052
PPAPRPSTRHTP | 0.74 ± 0.013
PPAPSPLPPPPF | 0.756 ± 0.03
PPAPSPRPPPPP | 0.708 ± 0.067
PPAPTAPPLSSH | 0.681 ± 0.03
PPARRPVPPLSC | 0.7187 ± 0.0058
PPASPPAPPTFG | 0.645 ± 0.021
PPATPTNPPVSP | 0.687 ± 0.027
PPATTPICSTPS | 0.681 ± 0.017
PPAVPSTPLSPP | 0.685 ± 0.032
PPCTVHPLPRLP | 0.727 ± 0.02
PPDLSWPPAPLP | 0.824 ± 0.021
PPDPRLPRHDRP | 0.755 ± 0.018
PPEPRPLPDAPP | 0.5977 ± 0.0052

Sequence | protein stability index
PPFDSAHPTPAP | 0.739 ± 0.019
PPFLLPCFPCFS | 0.494 ± 0.07
PPFLPPSPPAPP | 0.691 ± 0.031
PPFPPHPPPSSA | 0.6873 ± 0.0052
PPFPPPPPPSPS | 0.751 ± 0.07
PPFPPPSPPHAL | 0.751 ± 0.1
PPFPPRPLPPIP | 0.693 ± 0.017
PPFSLVTGLPCP | 0.71 ± 0.048
PPFVPFLLIFPP | 0.611 ± 0.042
PPGGSRTEGRRT | 0.688 ± 0.049
PPGPPPPLPISP | 0.7244 ± 0.0044
PPGPRPTPPPPI | 0.641 ± 0.045
PPGPTSSPTKTH | 0.729 ± 0.056
PPGSPGPRTPPP | 0.708 ± 0.024
PPHAAPPHICWQ | 0.727 ± 0.049
PPHCSSPTPARH | 0.694 ± 0.028
PPHHPPPASRSQ | 0.653 ± 0.068
PPHLPPPPPVPA | 0.5751 ± 0.0052
PPHPKPPPAPPP | 0.527 ± 0.041
PPHPLPPPSPPF | 0.682 ± 0.034
PPHPPRPSVSSS | 0.687 ± 0.0097
PPHPRTPPATPP | 0.601 ± 0.12
PPHPSPPHPSSA | 0.752 ± 0.01

Sequence | protein stability index
PPHSIPSPSHPR | 0.714 ± 0.052
PPHSPETVPARP | 0.688 ± 0.046
PPHTALLPPAPA | 0.583 ± 0.019
PPHTRTACHRAP | 0.7251 ± 0.0034
PPLAAFLPFLAL | 0.694 ± 0.0011
PPLAPPHPCPPP | 0.698 ± 0.018
PPLASFPPPPPL | 0.667 ± 0.064
PPLASPDPPLPL | 0.66 ± 0.083
PPLGPARNYPSL | 0.673 ± 0.018
PPLLHPLPPPLP | 0.659 ± 0.014
PPLLPPPLTPPD | 0.628 ± 0.051
PPLLPPTPPLSA | 0.625 ± 0.018
PPLLPRPPPLSP | 0.6677 ± 0.0037
PPLPCATLPSHS | 0.706 ± 0.013
PPLPFSSSRFPS | 0.666 ± 0.02
PPLPLPTLPCRP | 0.644 ± 0.035
PPLPLTAPHLCH | 0.705 ± 0.03
PPLPPPPHPPFP | 0.683 ± 0.07
PPLPPPPPPVPA | 0.681 ± 0.036
PPLPPRSPSAPL | 0.695 ± 0.034
PPLPPSSMPPSH | 0.685 ± 0.035
PPLPPVPSPPPP | 0.654 ± 0.025
PPLPSLLGLLFP | 0.6773 ± 0.0044

Sequence | protein stability index
PPLPSSPPSSPL | 0.68 ± 0.013
PPLRPPPPLPVP | 0.663 ± 0.054
PPLSCFPLSTRL | 0.683 ± 0.002
PPLSFDTSRVAP | 0.677 ± 0.049
PPLSHPRPILAP | 0.5683 ± 0.0025
PPLSPLAPPSHP | 0.727 ± 0.069
PPLSPRLLWSPV | 0.711 ± 0.0044
PPLVPPPLRASP | 0.684 ± 0.037
PPLYFFSPMAFF | 0.783 ± 0.032
PPMSYYLFPCSR | 0.699 ± 0.061
PPPAFRLPLPPP | 0.727 ± 0.072
PPPALTHLLPLP | 0.678 ± 0.058
PPPAPLSPLSPR | 0.6777 ± 0.0016
PPPAPPSPPPPP | 0.65 ± 0.054
PPPAPPVRPDRS | 0.686 ± 0.048
PPPASPLPPASP | 0.667 ± 0.031
PPPASPSPSMVF | 0.693 ± 0.024
PPPASRTPSNLP | 0.732 ± 0.046
PPPDPPLSPPPP | 0.676 ± 0.087
PPPDYPPTPAPS | 0.715 ± 0.054
PPPEVDLRPCHC | 0.688 ± 0.055
PPPFCPCNRLNG | 0.702 ± 0.0078
PPPFSPPSDLPL | 0.601 ± 0.041

Sequence | protein stability index
PPPGPPPPPPYP | 0.656 ± 0.12
PPPGPPSAPPPH | 0.706 ± 0.047
PPPGPRPPSRSN | 0.581 ± 0.022
PPPHAARSLFSL | 0.733 ± 0.098
PPPHATPAPSPL | 0.706 ± 0.045
PPPHPGFHLSSP | 0.673 ± 0.088
PPPHPKPPPAGH | 0.62 ± 0.069
PPPHPPTPLPPT | 0.701 ± 0.018
PPPHSPSPTPHW | 0.713 ± 0.016
PPPHSSPPPSPP | 0.693 ± 0.069
PPPHTPLPPLAP | 0.744 ± 0.05
PPPLGPPPPSSL | 0.774 ± 0.072
PPPLLCPSSAPP | 0.783 ± 0.087
PPPLPALRPPSH | 0.7193 ± 0.0013
PPPLPLVPPSPP | 0.651 ± 0.033
PPPLPPAPPPFP | 0.698 ± 0.017
PPPLPPFPPAPP | 0.642 ± 0.012
PPPLPPPCSAPP | 0.736 ± 0.012
PPPLPPPSLVSF | 0.6741 ± 0.0051
PPPLPPSIPLPL | 0.743 ± 0.031
PPPLSPPPPPRP | 0.6643 ± 0.0031
PPPLSVPVPPLS | 0.68 ± 0.021
PPPPAPPAPPLR | 0.732 ± 0.056

Sequence | protein stability index
PPPPAQGRRRPV | 0.703 ± 0.023
PPPPIRRPASHL | 0.76 ± 0.058
PPPPLAPLPPAS | 0.608 ± 0.12
PPPPLAVSPTSP | 0.716 ± 0.039
PPPPLPFSPPDP | 0.681 ± 0.044
PPPPLPHPPAAS | 0.7 ± 0.02
PPPPLPPLTPLS | 0.6512 ± 0.0037
PPPPLPPPTLPT | 0.726 ± 0.11
PPPPLSPPPPRP | 0.693 ± 0.05
PPPPLSTVPPPP | 0.811 ± 0.019
PPPPPAIPRRRT | 0.678 ± 0.033
PPPPPAPTTSVP | 0.6829 ± 0.002
PPPPPHAEAVSR | 0.59 ± 0.029
PPPPPLHPPPPL | 0.605 ± 0.056
PPPPPLLAPSPL | 0.671 ± 0.07
PPPPPLLPSPSP | 0.696 ± 0.05
PPPPPLPPPPPT | 0.696 ± 0.087
PPPPPLRPPRSP | 0.767 ± 0.013
PPPPPPASPPSP | 0.71 ± 0.015
PPPPPPLPLPLS | 0.711 ± 0.084
PPPPPPLTPTFP | 0.6601 ± 0.0036
PPPPPPNAPPSS | 0.647 ± 0.03

From the supplement of paper PMC10724198
